# B1: Hairpin Ribozyme (parent)
# chain: GUCCUCUUUCACGUGCGCGUGAAAGAGAGAAGUGAACCAGAGAAACACACGUUGUGGUAUAUUACCUGGUA
# Variants of: B1
# Experiment: self-cleavage, relative activity (ratio to wild type); higher = more cleavage; co-transcriptional
row,Variant,self-cleavage
1,A31G A49C,0.162
2,A31G A49G,0.241
3,A31U A35G,0.244
4,G29C U67C,0.0789
5,G29U A47C,0.0936
6,G29U A47U,0.169
7,A31U A43G,0.134
8,A30C A47C,0.156
9,A31U A61U,0.138
10,A31U A61C,0.111
11,A30U U63C,0.0881
12,A31C G34A,0.163
13,A30C G34A,0.0999
14,A30G C65U,0.125
15,A30G A31U,0.125
16,A30G A31C,0.111
17,A30C G68U,0.141
18,A30C G68C,0.172
19,A30U A45U,0.129
20,A30U A45G,0.236
21,A30U U58C,0.107
22,A30U U58G,0.155
23,G29U A45U,0.101
24,G29U A45C,0.0757

row,Variant,self-cleavage
1,G29A C66A,0.139
2,G29U A30G,0.189
3,G29U A30U,0.176
4,A30G G69U,0.0631
5,G29U U70A,0.21
6,G29C U63C,0.094
7,G29A A35G,0.147
8,G29A A35C,0.187
9,A31C U55C,0.208
10,G29C A39C,0.106
11,G29C A39G,0.0911
12,A30G C50G,0.177
13,G29U A39C,0.174
14,A31G G42U,0.19
15,A31G G42A,0.19
16,G29A A64G,0.0994
17,A30G A49U,0.0894
18,A30G A49G,0.0332
19,A30G A49C,0.0806
20,A30G A71G,0.109
21,A31C G40A,0.131
22,A31C G40U,0.0621
23,A30C U62G,0.134
24,A30G U33C,0.0632

row,Variant,self-cleavage
1,A30G U60G,0.158
2,A30G U60A,0.125
3,A30G C46A,0.202
4,G29U G54U,0.207
5,G29U U33A,0.169
6,G29U U33C,0.165
7,A30G A45U,0.177
8,A31C A41U,0.109
9,A31C A41G,0.102
10,G29C A31C,0.17
11,G29C A43C,0.125
12,A30U A36G,0.248
13,A30U A36C,0.0422
14,G29C G32U,0.121
15,G29C G32C,0.128
16,G29C G32A,0.167
17,A31G A59G,0.205
18,A31G A59U,0.184
19,G29U C37A,0.163
20,A31C A47C,0.0953
21,A31C A47U,0.192
22,G29U U60C,0.107
23,A30C,0.183
24,A30G,0.153

row,Variant,self-cleavage
1,A30U,0.142
2,A31G G69C,0.199
3,A30C U58C,0.158
4,G29U C38G,0.186
5,G29U C38A,0.179
6,A31C C38U,0.131
7,A30C A71G,0.247
8,A30C A71C,0.592
9,G29A U33G,0.167
10,A31G U55G,0.0654
11,A30G U55G,0.232
12,A30G U55A,0.122
13,A30G U67G,0.0921
14,A30G U67C,0.119
15,A30C A31C,0.159
16,A30C A31G,0.141
17,A30U G54C,0.0714
18,A30U A31G,0.143
19,G29C G51U,0.141
20,A31C U33C,0.18
21,G29U G56A,0.162
22,A30U C66U,0.083
23,A28U U62A,0.0878
24,A28U U62G,0.0982

row,Variant,self-cleavage
1,A28U U62C,0.272
2,G29A U70C,0.171
3,G29A U70A,0.0755
4,G29A U70G,0.182
5,G29C G69U,0.119
6,G29C G69A,0.0986
7,G29A A41U,0.156
8,A30G A61G,0.224
9,G29A C37G,0.103
10,G29A C37U,0.134
11,G29A C37A,0.107
12,G29C C48U,0.203
13,G29A G32C,0.106
14,A31G G57C,0.121
15,A31G G57A,0.0901
16,A30C C65G,0.166
17,A30G A64G,0.141
18,A30G A64U,0.159
19,A30G A64C,0.0804
20,A30C A41U,0.364
21,A31G U62C,0.0965
22,A31C,0.131
23,A31G,0.729
24,A31U,0.129

row,Variant,self-cleavage
1,A31U A64U,0.134
2,G29U C66U,0.106
3,A31C A35G,0.13
4,A30U G40U,0.129
5,A30C U52G,0.113
6,G29C A71G,0.206
7,G29C A71C,0.179
8,G29U U63A,0.146
9,G29C C38A,0.174
10,G29C A44G,0.243
11,A31C A44C,0.128
12,A30C C50G,0.142
13,A30C G57A,0.158
14,A30C G57C,0.0882
15,G29U A64U,0.14
16,G29C U58G,0.077
17,G29C U58A,0.213
18,G29C G34A,0.158
19,G29C G34U,0.0954
20,G29C G57A,0.215
21,G29C G57U,0.142
22,G29A C38A,0.108
23,G29A G40C,0.0971
24,A30G A44C,0.169

row,Variant,self-cleavage
1,A30G A44G,0.108
2,G29C A30C,0.0921
3,G29C U60G,0.201
4,G29A U62A,0.123
5,G29U G32C,0.105
6,A30C U33A,0.0224
7,A30U G34A,0.216
8,A31G A47G,0.117
9,A31G A47C,0.2
10,A31G A47U,0.0555
11,G29C C46G,0.0799
12,A31C U52A,0.28
13,A31C U52C,0.196
14,A31C C48G,0.103
15,A31C C48A,0.115
16,A30C A35C,0.181
17,A31G A39G,0.192
18,A31G G68U,0.113
19,A30G G54A,0.102
20,A30G A47C,0.152
21,A30G A47G,0.0575
22,A31C G54C,0.198
23,A31C G54U,0.0998
24,G29U A35U,0.117

row,Variant,self-cleavage
1,A30G U52A,0.112
2,A30G U52C,0.116
3,G29U A49U,0.0858
4,A31C C50U,0.0888
5,A31U A71G,0.226
6,A31U A71U,0.172
7,A31U A71C,0.227
8,G29U G34A,0.0892
9,G29A G56C,0.166
10,A31C G51C,0.182
11,G29A C50U,0.178
12,G29U U58C,0.18
13,A30C U60A,0.12
14,A31C G42C,0.163
15,A31C G42U,0.092
16,G29U U52A,0.124
17,A30G G51U,0.157
18,A31G G54U,0.223
19,A31G G54A,0.378
20,A30G G40U,0.0805
21,A30U G56C,0.15
22,A30U A35C,0.0881
23,A30U A35U,0.196
24,A30C C66G,0.248

row,Variant,self-cleavage
1,G29C A61C,0.206
2,G29U A71G,0.171
3,G29U A71U,0.185
4,G29A A49U,0.122
5,G29A C48G,0.124
6,G29A A39G,0.128
7,G29A A39C,0.108
8,A30G G42C,0.169
9,A30G G42A,0.113
10,A30U A59C,0.153
11,G29A G54U,0.214
12,G29A G54C,0.0856
13,A30U A41C,0.256
14,G29A A59U,0.162
15,A30C A36C,0.164
16,A30C A36G,0.223
17,G29U G42C,0.115
18,G29U G42A,0.0859
19,A31G C50A,0.146
20,G29C A59U,0.207
21,A31U A45C,0.191
22,A31C G69U,0.0958
23,A30U C46A,0.128
24,A30U C46G,0.252

row,Variant,self-cleavage
1,A31C C37G,0.146
2,G29U C48G,0.096
3,A30G U63A,0.0503
4,A30G U63C,0.185
5,A30G U63G,0.101
6,A31C A45U,0.0614
7,A31C A45G,0.0362
8,G29U G68C,0.137
9,A31G A64U,0.215
10,G29A A45G,0.105
11,G29C G42U,0.11
12,G29C G42A,0.13
13,G29A A43C,0.215
14,G29C G40A,0.115
15,G29C G40C,0.133
16,A30U U60C,0.306
17,A30U U60G,0.0766
18,A30G G56A,0.0987
19,A30G G56U,0.133
20,A31G C46G,0.0961
21,A31G C46A,0.155
22,A31G C46U,0.142
23,A31U A41U,0
24,A31G A41U,1.37

row,Variant,self-cleavage
1,A31G A41G,0.712
2,A31G A43C,0.0574
3,A31G A43G,0.207
4,A30G A41U,0.244
5,G29A G57A,0.141
6,G29A G57U,0.0366
7,A31U A44C,0.101
8,A31U A44U,0.286
9,G29C A35U,0.0473
10,G29C A35C,0.104
11,G29U U53G,0.102
12,A31C A49U,0.151
13,A31C A49C,0.149
14,A30C G69U,0.124
15,A31G U67G,0.337
16,A30G U58G,0.19
17,A30G U58A,0.0366
18,A28U U63G,0.105
19,G29U C65A,0.139
20,A31C A43G,0.107
21,A31C A43C,0.25
22,G29C U55C,0.127
23,A30G U62C,0.13
24,A30C A39G,0.1

row,Variant,self-cleavage
1,G29A A31C,0.129
2,G29U G51C,0.167
3,A31G U53A,0.673
4,A31G U53C,0.846
5,A30G G34U,0.932
6,A30C C48A,0.103
7,G29A U55C,0.163
8,A31G U33G,0
9,G29C A41C,0.0573
10,G29C A41G,0.142
11,A30U U55C,0.179
12,A31U A47U,0.141
13,A31C U60A,0.157
14,A31G A71G,0.651
15,G29C U52C,0.163
16,G29C C50A,0.167
17,G29A A44U,0.226
18,A31G U63C,0.105
19,A31G U63A,0.144
20,A31C A39U,0.183
21,A31C A39G,0.09
22,A31U A59G,0.0459
23,G29A A36G,0.135
24,A30G C66A,0.192

row,Variant,self-cleavage
1,A30G C66G,0.184
2,A30U U52A,0.158
3,A30U A64C,0.174
4,A30U A64G,0.106
5,A30U C37G,0.0899
6,A30U C37A,0.0959
7,A31G A36G,0.57
8,A30C C46U,0.367
9,A30C A45C,0.126
10,A31G C37U,0.349
11,A30G A39U,0.138
12,A31C U67A,0.2
13,A31C U67C,0.0604
14,G29U G57U,0.149
15,G29U G57C,0.108
16,G29C G68A,0.0962
17,G29U A61U,0.0881
18,A31G G51C,0.495
19,A31C U70A,0.131
20,A30C A43G,0
21,G29U U67A,0.0852
22,G29U U67G,0.132
23,A30C G54U,0.0809
24,A28U U70C,0.394

row,Variant,self-cleavage
1,A30G A43U,0.221
2,A31U A49U,0.137
3,A31C A64C,0.134
4,A31C U53G,0.176
5,A31C U53C,0.0661
6,G29C A49C,0.159
7,G29A A30U,0.0939
8,G29A A30C,0.115
9,A30U U33C,0.196
10,A30U C65A,0.14
11,G29U U62G,0.0909
12,A30U C50A,0.221
13,A30U C50U,0.0896
14,A31G A44C,0.188
15,A31C U62G,0.223
16,A30G C37U,0.136
17,G29A G34U,0.131
18,G29U A43U,0.215
19,A30U A47G,0.0659
20,A31G C66U,0.294
21,G29U C46G,0.182
22,G29A G51C,0.216

# Reference: the RNAGym collection of RNA variant scans (doi:10.7554/elife.80360)
